# Article PMC3726529 (Nature, 2013)
# B1: TrkH from Vibrio parahaemolyticus (natural protein)
# chain: MQFRSIIRIVGLLLALFSVTMLAPALVALLYRDGAGVPFVTTFFVLLFCGAMCWFPNRRHKHELKSRDGFLIVVLFWTVLGSAGSLPFLIADNPNISVTDAFFESFSALTTTGATVIVGLDELPKAILFYRQFLQWFGGMGIIVLAVAILPVLGIGGMQLYRAEIPGPVKDTKMTPRIAETAKALWYIYLSLTIACAVAFWLAGMTPFDAISHSFSTIAIGGFSTHDASMGYFDSYAINLITVVFLLISACNFTLHFAAFASGGVHPKYYWKDPEFRAFIFIQVLLFLVCFLLLLKHHSYTSPYDAFDQALFQTVSISTTAGFTTTGFADWPLFLPVLLLFSSFIGGCAGSTGGGMKVIRILLLTLQGARELKRLVHPRAVYTIKVGGSALPQRVVDAVWGFFSAYALVFVVCMLGLIATGMDELSAFSAVAATLNNLGPGLGEVALHFGDVNDKAKWVLIVSMLFGRLEIFTLLILLTPTFWRS
# Columns and labels:
# isolated TrkA (VpTrkA) = target: T1, isolated TrkA (VpTrkA) (Vibrio parahaemolyticus, UniProt Q87KD2); test: co-crystal structure, […] Å; assay type: binding; conditions: 10 mM ATPγS; GXGXXG motif in the N lobe of each RCK domain
# T1 sequence (Q87KD2 1-458): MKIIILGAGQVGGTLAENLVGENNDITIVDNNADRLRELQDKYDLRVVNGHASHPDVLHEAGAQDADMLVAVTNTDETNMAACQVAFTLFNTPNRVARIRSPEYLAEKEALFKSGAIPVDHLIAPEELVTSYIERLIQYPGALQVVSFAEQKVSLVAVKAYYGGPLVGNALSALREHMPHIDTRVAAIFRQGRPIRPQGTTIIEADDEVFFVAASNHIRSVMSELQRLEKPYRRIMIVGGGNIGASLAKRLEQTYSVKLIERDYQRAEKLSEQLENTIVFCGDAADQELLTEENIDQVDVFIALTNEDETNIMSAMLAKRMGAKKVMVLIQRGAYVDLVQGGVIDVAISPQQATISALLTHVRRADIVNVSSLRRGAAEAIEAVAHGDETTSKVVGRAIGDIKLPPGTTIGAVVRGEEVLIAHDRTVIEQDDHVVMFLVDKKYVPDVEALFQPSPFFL
# [1] = target: TrkA from Vibrio parahaemolyticus, co-expressed with TrkH (Vibrio parahaemolyticus); test: crystal structure
# [2] = target: isolated TrkA from Vibrio parahaemolyticus (Vibrio parahaemolyticus)
# crystal structure = target: the molecule itself; test: crystal structure
molecule,measurement,setting,value
"Nc1ncnc2c1ncn2[C@@H]1O[C@H](COP(=O)(O)OP(=O)(O)OP(O)(O)=S)[C@@H](O)[C@H]1O [ATPγS, adenosine 5′-O-(3-thiotriphosphate)]","co-crystal structure, 3.05 Å",isolated TrkA (VpTrkA),Each protomer contains two large densities consistent with ATPγS molecules
"TrkA from Vibrio parahaemolyticus, co-expressed with TrkH (natural protein)",stoichiometry N,[1],4
isolated TrkA from Vibrio parahaemolyticus (natural protein),stoichiometry N,[2],4
B1,stoichiometry N,crystal structure,2
